Assay results reported in US20200347130A1 (JIANGSU HENGRUI MEDICINE, published 2020).

Target: T1, Biotinylated CD96 antigen (human, UniProt P40200-2 22-503, limits assumed, biotinylated)
T1 sequence (looked up): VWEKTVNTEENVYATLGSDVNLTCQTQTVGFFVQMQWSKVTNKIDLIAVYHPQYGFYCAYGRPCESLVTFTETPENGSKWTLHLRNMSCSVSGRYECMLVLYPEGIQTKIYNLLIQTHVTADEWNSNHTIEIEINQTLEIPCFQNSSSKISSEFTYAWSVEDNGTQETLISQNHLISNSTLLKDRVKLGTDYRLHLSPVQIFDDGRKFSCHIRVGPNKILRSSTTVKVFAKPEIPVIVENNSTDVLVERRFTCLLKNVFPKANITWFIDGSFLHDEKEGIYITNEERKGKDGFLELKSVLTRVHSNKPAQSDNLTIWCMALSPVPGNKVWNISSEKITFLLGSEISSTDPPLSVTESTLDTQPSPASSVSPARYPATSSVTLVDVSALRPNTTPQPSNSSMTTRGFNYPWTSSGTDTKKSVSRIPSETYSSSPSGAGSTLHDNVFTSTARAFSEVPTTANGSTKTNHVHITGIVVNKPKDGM
Experiment: competition ELISA: antibody B pre-incubated with biotinylated CD96 antigen, added to a plate coated with antibody A, HRP-streptavidin, OD450; competitor: coated h1722-010
Protocol: Competitive assays of different antibodies binding to CD96 protein were used to classify binding epitopes of the antibodies. The specific experimental methods are as follows:
Antibody A was diluted to a concentration of 2 μg/ml with PBS buffer (Shanghai Yuanpei Biotechnology Co., Ltd. Cat No. B320), pH 7.4, added to a 96-well microtiter plate (Corning, Cat No. CLS3590-100EA) at a volume of 50 μl/well, and coated at 4° C. overnight. After discarding the liquid, 250 μl/well of 5% skim milk (BD skim milk, Cat No. 232100) blocking solution diluted with PBS was added, and the plate was incubated at 37° C. for 3 hours. After blocking, the blocking solution was discarded, and the plate was washed 5 times with PBST buffer (pH 7.4 PBS containing 0.05% tween-20) and stored for later use. Antibody B was diluted to 40 μg/ml and 8 μg/ml with 1% BSA, and Biotinylated CD96 antigen was simultaneously diluted to 4 μg/mL. Subsequently, antibody B and antigen were mixed in a 1:1 volume ratio, pre-incubated at 37° C. for 45 minutes, added into the enzyme plate coated with antibody A, thus incubating the plate in an incubator at 37° C. for 1.5 hours. […] The absorption value was read at 450 nm with a NOVOStar microplate reader, and the OD value was used to determine whether A and B CD96 antibodies compete with each other. […]

B1: h1722-010 (antibody, V domains shown)
VH: EVQLVQSGAEVKKPGSSVKVSCKASGGTFSDYWMHWVRQAPGQGLEWIGMLHPNSGTTSFNEKFKIRVTITADKSTSTAYMELSSLRSEDTAVYYCASDYSGPFAYWGQGTLVTVSS
VL: DIQLTQSPSSLSASVGDRVTITCSASSSVNYIHWYQQKPGKAPKRWIFDTSKLASGVPSRFSGSGSGTDYTLTISSLQPEDFATYYCQQWRSNPLTFGQGTKLEIK
notes: Only variable regions are tied to this name; also called M722-010
  IC50 (read off the curve): ~0.5 nM
